Earlier results on 1 substance are cited in article PMC3022782.

For orientation: Kd means the concentration at which binding is half-saturated.

The series has as its target β sliding clamp rim (Escherichia coli) (UniProt P0A988).
Sequence of UniProt P0A988 (P0A988 whole entry): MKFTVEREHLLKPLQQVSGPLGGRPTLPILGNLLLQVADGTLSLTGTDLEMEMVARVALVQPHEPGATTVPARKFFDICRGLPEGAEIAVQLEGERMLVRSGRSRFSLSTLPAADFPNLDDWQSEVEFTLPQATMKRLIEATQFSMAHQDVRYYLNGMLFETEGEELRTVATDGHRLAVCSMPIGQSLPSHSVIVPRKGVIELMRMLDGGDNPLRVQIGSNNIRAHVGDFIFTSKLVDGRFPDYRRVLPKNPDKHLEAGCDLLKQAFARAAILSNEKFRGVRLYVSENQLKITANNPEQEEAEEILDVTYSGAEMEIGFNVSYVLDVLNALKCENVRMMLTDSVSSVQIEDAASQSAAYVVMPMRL

Turning to Pol IV (from UniProt Q47155), the Kd was 1 µM.
